From patent publication US20160238591A1 (MIT, published 2016)

Biological target: T1, Cys2-pilin-C (Streptococcus pyogenes serotype M1, UniProt Q9A1S2 18-299, N-terminal Cys2 linker attached to the shell surface of the nanocrystal (QD or dot-in-rod HNC) during shell synthesis)
T1 construct: Tested only as a nanocrystal conjugate; also called QD-pilin-C; CdSe/CdS QD-pilin-C conjugates
T1 sequence: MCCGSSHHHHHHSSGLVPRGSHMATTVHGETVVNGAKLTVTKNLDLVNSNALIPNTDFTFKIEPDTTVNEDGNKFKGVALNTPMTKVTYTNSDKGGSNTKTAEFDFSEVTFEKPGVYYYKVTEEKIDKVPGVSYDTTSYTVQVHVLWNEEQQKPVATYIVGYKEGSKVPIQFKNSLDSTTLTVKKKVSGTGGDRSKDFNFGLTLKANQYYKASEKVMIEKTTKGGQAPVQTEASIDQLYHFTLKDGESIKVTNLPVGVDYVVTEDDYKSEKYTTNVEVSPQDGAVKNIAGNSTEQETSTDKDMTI
Assay: TEM and HRTEM (FIGS. 11, 11A and 11B)

B1: CsgAHisTag amyloid fibrils (other)
chain: GVVPQYGGGGNHGGGGNNSGPNHHHHHHHSELNIYQYGGGNSALALQTDARNSDLTITQHGGGNGADVGQGSDDSSIDLTQRGFGNSATLDQWNGKNSEMTVKQFGGGNGAAVDQTASNSSVNVTQVGFGNNATAHQYHHHHHHH
notes: Fibrils composed only of CsgAHisTag subunits, used as a control for QD-pilin-C
binding result: no binding
